# Data as given in the nanobody polyreactivity screen of Harvey et al. (2022).
# Experiment: yeast display, Sf9 membrane polyspecificity reagent, FACS + sequencing; frameworks hold sequencing errors
# Summary of the method: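 After 36–48 hours of galactose induction, yeast (Saccharomyces cerevisiae BJ5465) displaying a synthetic nanobody library were stained at 4 °C for 1 hour with 10% biotinylated, detergent-solubilized Sf9 membrane reagent. Streptavidin microbeads enriched the stained cells before FACS sorting into low and high (top ~1%) gates on anti-HA and streptavidin fluorescence. Each clone's polyreactivity label reflects its gate of origin.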
row,Sequence,polyreactivity (PSR sort gate)
1,QVQLVESGGGLVQAGCSLRLSCSASGSIFRNNAMGWYRPAHGKERELVAAITSTGTGTYYADSLKGRFTISRDNAKNTVYLQMNSLKPEDTAVYYCSVDDDFEFVYWGQGTQVTVSS,low polyreactivity
2,QVQLVESGGGLVQAGCSLRLSYAASGLTFRRNPLGWYRQAPGKERELVATITSVGSTNYADSVKGRFTISRDNAKNTVYLQMISLKPEDTAVYYCRTVTYGYWGQGTQVTVSS,high polyreactivity
3,QVQLVESGGGLVQAGCSLRLTCAASGSIFPYYAMGWYRQAPGKERELVAAISYSGGRTRYADSVKGRFTISRDNAKNTVYLQMNSLKPEHTAVYYCAVVDRHQPYGRQLDYWGQGTQVTVSS,low polyreactivity
4,QVQLVESGGGLVQAGCSRRLSCSASGSIFRGNSMGWYRPAPGKERELVAAITGSGGNTYYADSVKGRFTISRDNAKNTVYLQMNSLKPEDTAFYYCIADGWNTYIGPRRYRYDYWGQGTQVTVSS,low polyreactivity
5,QVQLVESGGGLVQAGCTLRLSCAASGSIAYNAMGWYRQAPGKERELVASIRASGGRTYYADSVKGRFTISRDNAKNSVYLQMNSLKPEDTAVYYCAAYHGSKPLHHKGYDYWGQGTQVSVSS,low polyreactivity
6,QVQLVESGGGLVQAGDSLRLSCAASGSTFTRNAMGWYRQAPGKERDLVASITRGGSTYADSVKGRFTISRDNAKNTVYLQMYSLKPEDTAVYYCAKSVTCWRGLWYTPRNYFWGQGSQVTVSS,high polyreactivity
7,QVQLVESGGGLVQAGFSLRLSCAASGSIFDYYTMGCYRQAPGKERELVATIRSGDSTNYADSVKGRFTISRDNAKNTVYLQMNSLKPEDTAVYYFAADDGAYPTLYDYWGQGTQVTVSS,low polyreactivity
8,QVQLVESGGGLVQAGGCLRLSCAASGFTFWWYAMGWYRQAPGKERELVAAISSGGSTNYADSVKGRFTLSRDNAKNTVYLQMNSLQPEDTAVYYCARRLWYSDRYSARWQYDYWGQVTQVTVSS,high polyreactivity
9,QVQLVESGGGLVQAGGCLRLSCAASGNTFYGYAMGWYRQAPGKERELVASITLSGDSTYYADSVKGRFTISRDNAMNTVYLQMNSLKPEYTAVYYCAGVYTYPLGYYHYTYDYWGQGTQVTVSS,low polyreactivity
10,QVQLVESGGGLVQAGGCLRLSCAASGRIFYANTMGWYRQAPGIEWELVASMYGAVGTYADSVKGRFTISRDKAKNTVSLQMNSLKPEDTAVYYCNAYLTRPVEEYLWDGYYYWGQGTQVTVSA,low polyreactivity
11,QVQLVESGGGLVQAGGCLRLSCAASGSIFFGYAMGWYRQAPGKERELVAAINGSVITSYADSVKGRFTISRDNAKNTVYLQMNSLKPEDTAYYCNTGSTWGAVIANYDHWGQGTQVTVSS,low polyreactivity
12,QVQLVESGGGLVQAGGCLRLSCAASGSTFEDYAMGWYRQATGKERALVAAINSGGSTYYADSVKGRFTFSRHNAKNTVYLQMNSQKPEDTAVYYCAARIYYWTYRYNYWGQGTQVTVSS,high polyreactivity
13,QVQLVESGGGLVQAGGCLRLSCAASGSTFLRNTMGWYRLAPGKERELVATISAGASNTYYADSVKGRFTISRDNAKNTDYLQKNSLTPEATAVYYCAARLLTWYYGIRYYWGQGTQVTVSS,high polyreactivity
14,QVQLVESGGGLVQAGGCLRVSCAASGNICVIYAMGGDRKAPGKERELLAAINWNSGRTYYADSVKGRFTISRDNAKNTVYLQMNSLKPEDTAVYYCAARTWGFGYPEFGYWGQGTQVTVSS,high polyreactivity
15,QVQLVESGGGLVQAGGGLRLSCAASGITFVDYDMGWYRQAPGKERELDAAITTGSSTYYADSVKGRFTISRDNAKNTVYLQMNSLKPEDTAVYYCARDFEYDYYQQWSYGYWGQGTQVTVSS,low polyreactivity
16,QVQLVESGGGLVQAGGGLRLSCAASGSIFGSYAMGWYRQAPAKERELVAGITYRGSSTYYADSVKGRFTISRDNAKNTVYLQMTSLKPEDSAVYYCAADPVFDEYDYWGQGTQVTVSS,low polyreactivity
17,QVQLVESGGGLVQAGGGLRLSCSASGYIFGYTAMGWYRQAPGKERELVAAISYSGGSTYYADSVKGRFTISRDNAKNTVYLQMNSLKPVDTAVYYCAAYRKGTWPGYLGVGYDYWGQGTQVTVSS,high polyreactivity
18,QVQLVESGGGLVQAGGILRFSCAASGSTFGLNAMGWYRQAPGQERELVAAISWSGGTTYYADSVKGRFTISRDNAKNTVYLQMNSLTPEDTAVYYCAADVYSSWGYYEVYYWGQGTQVTVSS,high polyreactivity
19,QVQLVESGGGLVQAGGILRISCAASGFIFYPYAMGWYRQAPGKERELVATIDGGGSTYYADSVKGRFTISRDNAKNTVYLQMNSLKPEDSAVYYCDASQWSNYDNWGQGNQVTVSS,low polyreactivity
20,QVQLVESGGGLVQAGGILRISCAASGSISSYYAMGWYRPAPGKERELVAAITSGGRTYFADSVKGRFTISRDNAKNTVYFQMNSLKQEDTAVYYCNARTARNPIKGRASDYWGQGTQVTVSS,high polyreactivity
21,QVQLVESGGGLVQAGGILRLGCAASGSTFAWNAMGWYRPAPGKERELVATISRSGSTNYADSVKGRFTISRDNAKNTVYLQMNCLKPEVTAVYYCARDKRYYRQYYYHTRYYYWGQGTQVTVSS,high polyreactivity
22,QVQLVESGGGLVQAGGILRLICAASGRIFKLNALGWYRQAPGKERELDAAITFSGGSTYYADSVKGRFRISRDNVNYTVYLQMNSMKPEYTGVYYCNAEFSNVELYYWGQGTHVTVSS,low polyreactivity
